Patent US9382305B2, “Relaxin fusion polypeptides and uses thereof” (BAYER INTELLECTUAL PROPERTY GMBH, priority 2011, dated 2016)
Like-named read-outs stand apart in the source and are kept apart here. Ends that are not written are not given here.

Key:
[1] = target: T1, human LGR7/RXFP1 receptor (Homo sapiens, UniProt Q9HBX9); assay: Activity testing: CRE-luciferase reporter in CHO-CRE-LGR7 cell line; format: cell-based; conditions: for EC50 (M): luciferase after 6 hours, examples of three to five independent experiments
T1 construct: cloned as 2271 base pair long DNA fragment; expressed in transfected cells; host or cells: CHO K1 (ATCC CCL-61) with CRE-luciferase reporter; receptor in pcDNA3.1(-)
T1 sequence (Q9HBX9 1-757): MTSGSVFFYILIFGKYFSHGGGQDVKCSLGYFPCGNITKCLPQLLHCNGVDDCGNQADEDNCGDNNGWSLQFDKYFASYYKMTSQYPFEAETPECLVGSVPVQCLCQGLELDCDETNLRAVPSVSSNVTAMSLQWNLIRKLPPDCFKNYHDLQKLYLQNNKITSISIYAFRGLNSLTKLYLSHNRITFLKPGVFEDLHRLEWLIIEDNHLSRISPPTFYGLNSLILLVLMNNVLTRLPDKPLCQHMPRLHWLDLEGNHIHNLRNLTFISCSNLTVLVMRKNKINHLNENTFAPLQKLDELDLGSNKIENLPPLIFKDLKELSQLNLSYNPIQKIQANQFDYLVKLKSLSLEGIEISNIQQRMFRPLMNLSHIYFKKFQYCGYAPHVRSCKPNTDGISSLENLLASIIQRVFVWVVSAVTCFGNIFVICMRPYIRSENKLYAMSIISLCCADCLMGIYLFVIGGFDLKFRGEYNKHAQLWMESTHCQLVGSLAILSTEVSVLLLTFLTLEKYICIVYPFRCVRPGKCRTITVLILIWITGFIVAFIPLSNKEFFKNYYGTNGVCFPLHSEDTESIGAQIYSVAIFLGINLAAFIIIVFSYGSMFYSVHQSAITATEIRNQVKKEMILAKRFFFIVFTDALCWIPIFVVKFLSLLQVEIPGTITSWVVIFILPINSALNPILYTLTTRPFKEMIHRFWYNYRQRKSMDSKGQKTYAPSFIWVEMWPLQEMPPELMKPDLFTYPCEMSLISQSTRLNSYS
Procedure: For stimulation, medium was exchanged by OptiMem (Gibco, #11058)+1% FCS containing different concentrations of the recombinantly expressed Relaxin variant proteins (usually starting at a concentration of 100 nM, followed by 1:2 dilutions). As positive control, commercially available recombinant expressed human Relaxin 2 (Genbank Accession number NP_604390.1) was used (R&D Systems, catalogue number 6586-RN-025). Subsequently, cells were incubated for 6 hours in a humified incubator at 5% carbon dioxide at 37° C. After 6 hours cells were tested for Luciferase activity using a Luciferase Assay System (Promega, # E1500) and using the Tecan Infinite 500 reader, luminescence mode, 1000 milliseconds integration time, measurement time 30 seconds.

[2] = intravenously administrated, humans (Dschietzig T. et al. (2009)); cited from earlier work
[3] = tested on: isolated perfused rat heart; assay: Isolated perfused rat heart (Langendorff); set-up: species or system Wistar rats
Procedure: Male Wistar rats (200-250 g) were anesthetized using Narcoren (100 mg/kg i.p.). The heart was rapidly excised and connected to a Langendorff perfusion system (FMI GmbH, Seeheim-Ober Beerbach, Germany). The heart was perfused at a constant rate of 10 ml/min with Krebs-Henseleit bicarbonate buffer solution equilibrated with 95% O2-5% CO2. The perfusion solution contained (in mmol/l): NaCl 118; KCl 3; NaHCO3 22; KH2PO41,2; MgSO4 1,2; CaCl2 1,8; Glucose 10; Na-Pyruvat 2. A pressure transducer registered the perfusion pressure in the perfusion system. The left ventricular pressure (LVP) was measured using a second pressure transducer connected to a water-filled balloon which was inserted into the left ventricle via the left atrium. The end diastolic pressure was initially set to 8 mm Hg by adjusting the volume of the balloon. The hearts were spontaneously beating. The signals from the pressure transducer were amplified, registered and used for the calculation of the heart frequency and +dp/dt by a personal computer.

[4] = In vivo plasma stability: serum levels by quantification ELISA after intravenous administration; conditions: male Wistar rats, 240 μg/kg intravenously, three days after application
Procedure: Blood samples were collected at the indicated time points after application and serum levels of each protein were measured by using a quantification ELISA.
At time points 0 hour, 1 hour, 3 days, 5 days, and 7 days after compound administration, blood samples were taken and the concentrations of the Fc-single chain Relaxin and non-modified hRelaxin2 were determined using the commercially available quantification ELISA (R&D Systems, Human Relaxin-2 Quantikine ELISA Kit, catalogue number DRL200).

[5] = Table 2, scR fusion protein constructs

## Relaxin Fc: human Relaxin 2 (B chain-C chain-A chain) fused via IleGluGlyArgMetAsp to N terminal end of human IgG1 Fc
[1]
  biological activity (activation of LGR7), in words: no activity
[1]; [5]
  EC50 (M): not detectable
[1]; listed as human wildtype Relaxin 2 molecule with its orientation B chain-C chain-A chain f
  biological activity (activation of LGR7), in words: does not show any detectable activity

## scR-Var7: single chain human Relaxin 2, linker LysArgSerLeuSerArgLysLysArg; B chain C terminus linked via IleGluGlyArgMetAsp to human IgG1 Fc; SEQ ID NO: 40
[1]; [5]
  EC50 (M): active (EC50 n.d.)

## scR14: single chain human Relaxin 3 A-L-B, linker GlyGlyGlySerGlyGlyGlySerGly; non-purified; SEQ ID NO: 14 (DVLAGLSSSCCKWGCSKSEISSLCGGGSGGGSGRAAPYGVRLCGREFIRAVIFTCGGSRW; ends and bridges not checked; cysteine pairing not given here)
[1]
  biological activity (activation of LGR7), in words: detectable biological activity

## hRelaxin 2: commercially available recombinant expressed human Relaxin 2 (R&D Systems, catalogue number 6586-RN-025), positive control (alpha QLYSALANKCCHVGCTKRSLARFC; beta SWMEEVIKLCGRELVRAQIAICGMSTWS; listed as Homo Sapiens)
[2]
  half-life: less than 10 minutes
[3]; concentration of 1 nM
  contractility (inotropic activity): negative inotrophic activity
  coronary flow: increase
  heart rate: increase
[3]; isolated perfused rat heart
  potency relative to scR-Fc 13: ten fold more potent
[3]; perfusion, FIG. 11
  coronary flow: significant increase
  heart rate: significant increase
  left ventricular diastolic pressure: decrease
  left ventricular pressure (+dp/dtmax): decrease
[4]
  serum concentration (ELISA): undetectable

## scR-Var8: human IgG1 Fc linked via IleGluGlyArgMetAsp to A chain N terminus; A-B linker LysArgSerLeuSerArgLysLysArg; SEQ ID NO: 41
[1]; [5]
  EC50 (M): active (EC50 n.d.)

B1: scR15: single chain human Relaxin 3 A-L-B, linker GlyGlyGlySerGlyGlyGlySerGly; Myc tag; SEQ ID NO: 15 (protein)
chain: EQKLISEEDLDVLAGLSSSCCKWGCSKSEISSLCGGGSGGGSGRAAPYGVRLCGREFIRAVIFTCGGSRW
modifications: ends and bridges not checked
[1]
  biological activity (activation of LGR7), in words: detectable biological activity

B2: scR17: A chain of human Relaxin 3-linker SEQ ID NO: 139-B chain of human Relaxin 2; Myc tag; SEQ ID NO: 153 (protein)
chain: EQKLISEEDLDVLAGLSSSCCKWGCSKSEISSLCGGGSGGGSGSWMEEVIKLCGRELVRAQIAICGMSTWS
modifications: relaxin fusion polypeptide
[1]
  biological activity (activation of LGR7), in words: reduced activity

B3: scR19: A chain of human Relaxin 2-linker SEQ ID NO: 139-B chain of human Relaxin 3; Myc tag; SEQ ID NO: 155 (protein)
chain: EQKLISEEDLQLYSALANKCCHVGCTKRSLARFCGGGSGGGSGRAAPYGVRLCGREFIRAVIFTCGGSRW
modifications: ends and bridges not checked
[1]
  biological activity (activation of LGR7), in words: further reduction in the activity
[1]; Table 1, scR constructs
  EC50 (M): active (EC50 n.d.)

B4: scR13: single chain human Relaxin 2 A-L-B, linker LysArgSerLeuSerArgLysLysArg; non-purified; SEQ ID NO: 13 (protein)
chain: QLYSALANKCCHVGCTKRSLARFCKRSLSRKKRSWMEEVIKLCGRELVRAQIAICGMSTWS
modifications: ends and bridges not checked
[1]
  biological activity (activation of LGR7), in words: lower activity
[1]; Table 1, scR constructs
  EC50 (M): active (EC50 n.d.)

B5: scR16: human Relaxin 2 B chain-linker GlyGlyGlySerGlyGlyGlySerGly-A chain; Myc tag; SEQ ID NO: 152 (protein)
chain: EQKLISEEDLSWMEEVIKLCGRELVRAQIAICGMSTWSGGGSGGGSGQLYSALANKCCHVGCTKRSLARFC
[1]; Table 1, scR constructs
  EC50 (M): not detectable

B6: scR18: B chain of human Relaxin 2-linker SEQ ID NO: 139-A chain of human Relaxin 3; Myc tag; SEQ ID NO: 154 (protein)
chain: EQKLISEEDLSWMEEVIKLCGRELVRAQIAICGMSTWSGGGSGGGSGDVLAGLSSSCCKWGCSKSEISSLC
modifications: relaxin fusion polypeptide
[1]; Table 1, scR constructs
  EC50 (M): not detectable

B7: scR20: B chain of human Relaxin 3-linker SEQ ID NO: 139-A chain of human Relaxin 2; Myc tag; SEQ ID NO: 156 (protein)
chain: EQKLISEEDLRAAPYGVRLCGREFIRAVIFTCGGSRWGGGSGGGSGQLYSALANKCCHVGCTKRSLARFC
modifications: ends and bridges not checked
[1]; Table 1, scR constructs
  EC50 (M): not detectable

B8: scR1: single chain human Relaxin 2 A-L-B, linker GlyGlyGly; Myc, hemagglutinin and 6 Histidine tags; SEQ ID NO: 1 (protein)
chain: EQKLISEEDLQLYSALANKCCHVGCTKRSLARFCGGGSWMEEVIKLCGRELVRAQIAICGMSTWSYPYDVPDYAHHHHHH
[1]; Table 1, scR constructs
  EC50 (M): not detectable

B9: scR2: single chain human Relaxin 2 A-L-B, linker GlyGlyGlySerGly; Myc, hemagglutinin and 6 Histidine tags; SEQ ID NO: 2 (protein)
chain: EQKLISEEDLQLYSALANKCCHVGCTKRSLARFCGGGSGSWMEEVIKLCGRELVRAQIAICGMSTWSYPYDVPDYAHHHHHH
[1]; Table 1, scR constructs
  EC50 (M): not detectable

B10: scR6: single chain human Relaxin 2 A-L-B, fifteen amino acid linker SEQ ID NO: 173; Myc, hemagglutinin, 6 Histidine tags; SEQ ID NO: 6 (protein)
chain: EQKLISEEDLQLYSALANKCCHVGCTKRSLARFCGGGSGGGSGGGSGGGSWMEEVIKLCGRELVRAQIAICGMSTWSYPYDVPDYAHHHHHH
[1]; Table 1, scR constructs
  EC50 (M): not detectable

B11: scR-Fc 18: C terminal end of scR4 linked via 21 amino acid linker SEQ ID NO: 174 to human IgG1 Fc; SEQ ID NO: 33 (protein)
chain: QLYSALANKCCHVGCTKRSLARFCGGGSGGGSGSWMEEVIKLCGRELVRAQIAICGMSTWSGGGSGGGSGTLVTVSSESKYGPPCPPCPAPEAAAPELLGGPSVFLFPPKPKDTLMISRTPEVTCVVVDVSHEDPEVKFNWYVDGVEVHNAKTKPREEQYNSTYRVVSVLTVLHQDWLNGKEYKCKVSNKALPAPIEKTISKAKGQPREPQVYTLPPSRDELTKNQVSLTCLVKGFYPSDIAVEWESNGQPENNYKTTPPVLDSDGSFFLYSKLTVDKSRWQQGNVFSCSVMHEALHNHYTQKSLSLSPGK
modifications: relaxin fusion polypeptide
[1]; [5]
  EC50 (M): active (EC50 n.d.)
